B1: V5-tagged PHD3/HPH1 (enzyme, human, UniProt Q9H6Z9 1-239, looked up)
chain: MPLGHIMRLDLEKIALEYIVPCLHEVGFCYLDNFLGEVVGDCVLERVKQLHCTGALRDGQLAGPRAGVSKRHLRGDQITWIGGNEEGCEAISFLLSLIDRLVLYCGSRLGKYYVKERSKAMVACYPGNGTGYVRHVDNPNGDGRCITCIYYLNKNWDAKLHGGILRIFPEGKSFIADVEPIFDRLLFFWSDRRNPHEVQPSYATRYAMTVWYFDAEERAEAKKKFRNLTRKTESALTED
notes: V5/His-tagged expression plasmid; not shown: V5/His tag
B2: Gal4-HIF1α(498-603)L574S (other, not shown: large carriers; small tags and cut ends)
chain: TPSPSDGSTRQSSPEPNSPSEYCFYVDSDMVNEFKLELVEKLFAEDTEAKNPFSTQDTDLDLEMLAPYIPMDDDFQSRSFDQLSPLESSSASPESASPQSTVTVFQ
notes: also called Gal4-C-ODD L574S mutant
B3: Gal4-HIF1α(498-574)L574S (other, not shown: large carriers; small tags and cut ends)
chain: TPSPSDGSTRQSSPEPNSPSEYCFYVDSDMVNEFKLELVEKLFAEDTEAKNPFSTQDTDLDLEMLAPYIPMDDDFQS
B4: Gal4-HIF1α(498-603) (other)
chain: MKLLSSIEQACDICRLKKLKCSKEKPKCAKCLKNNWECRYSPKTKRSPLTRAHLTEVESRLERLEQLFLLIFPREDLDMILKMDSLQDIKALLTGLFVQDNVNKDAVTDRLASVETDMPLTLRQHRISATSSSEESSNKGQRQLTVSTPSPSDGSTRQSSPEPNSPSEYCFYVDSDMVNEFKLELVEKLFAEDTEAKNPFSTQDTDLDLEMLAPYIPMDDDFQLRSFDQLSPLESSSASPESASPQSTVTVFQ
notes: also called Gal4-C-ODD; C-ODD
B5: Gal4-HIF1α(574-603) (other)
chain: MKLLSSIEQACDICRLKKLKCSKEKPKCAKCLKNNWECRYSPKTKRSPLTRAHLTEVESRLERLEQLFLLIFPREDLDMILKMDSLQDIKALLTGLFVQDNVNKDAVTDRLASVETDMPLTLRQHRISATSSSEESSNKGQRQLTVSLRSFDQLSPLESSSASPESASPQSTVTVFQ
B6: Gal4-HIF1α(498-574) (other)
chain: MKLLSSIEQACDICRLKKLKCSKEKPKCAKCLKNNWECRYSPKTKRSPLTRAHLTEVESRLERLEQLFLLIFPREDLDMILKMDSLQDIKALLTGLFVQDNVNKDAVTDRLASVETDMPLTLRQHRISATSSSEESSNKGQRQLTVSTPSPSDGSTRQSSPEPNSPSEYCFYVDSDMVNEFKLELVEKLFAEDTEAKNPFSTQDTDLDLEMLAPYIPMDDDFQL
B7: Gal4-HIF1α(401-603) with Pro-564 mutated to alanine (other, not shown: large carriers; small tags and cut ends)
chain: APAAGDTIISLDFGSNDTETDDQQLEEVPLYNDVMLPSPNEKLQNINLAMSPLPTAETPKPLRSSADPALNQEVALKLEPNPESLELSFTMPQIQDQTPSPSDGSTRQSSPEPNSPSEYCFYVDSDMVNEFKLELVEKLFAEDTEAKNPFSTQDTDLDLEMLAAYIPMDDDFQLRSFDQLSPLESSSASPESASPQSTVTVFQ
B8: Gal4-HIF1α(530-573) (other)
chain: MKLLSSIEQACDICRLKKLKCSKEKPKCAKCLKNNWECRYSPKTKRSPLTRAHLTEVESRLERLEQLFLLIFPREDLDMILKMDSLQDIKALLTGLFVQDNVNKDAVTDRLASVETDMPLTLRQHRISATSSSEESSNKGQRQLTVSEFKLELVEKLFAEDTEAKNPFSTQDTDLDLEMLAPYIPMDDDFQ

The target in the assay “Gal4-HIF1α(498-603)” is B4. Kind of assay: co-immunoprecipitation with anti-Gal4, Western blot with anti-V5, 293 cells with Cbz-LLL.
Protocol: (§1) One microgram of each plasmid was used. After treatment with Cbz-LLL for 4 h, cells were lyzed in a buffer (35) containing 25 mM Tris (pH 7.5), 300 mM NaCl, and 1% Triton-X. The lysate was immunoprecipitated with anti-Gal4 polyclonal antibody (Santa Cruz), followed by immunoblotting with anti-V5 antibody (Invitrogen) and monoclonal anti-Gal4 antibody (Santa Cruz).
(§2) To that end, we performed co-immunoprecipitations of C-ODD with the HIF prolyl hydroxylases.
Assay [1] deals with T1, VHL protein (endogenous, in Hep3B / 293 cell extracts) (UniProt P40337 1-213, limits assumed). Kind of assay: cell-based or functional assay.
T1 sequence (P40337 whole entry): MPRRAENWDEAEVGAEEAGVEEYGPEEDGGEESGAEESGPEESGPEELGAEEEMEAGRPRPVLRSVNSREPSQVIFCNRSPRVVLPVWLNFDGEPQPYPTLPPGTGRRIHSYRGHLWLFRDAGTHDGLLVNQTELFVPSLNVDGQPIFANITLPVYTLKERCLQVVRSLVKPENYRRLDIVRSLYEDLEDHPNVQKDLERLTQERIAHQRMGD
The target in assay [2] is T2, VHL protein, HA-tagged, in vitro translated from p(HA)VHL (UniProt P40337 1-213).
T2 construct: not shown: HA tag
T2 sequence (P40337 whole entry): as above
Kind of assay: in vitro co-immunoprecipitation with anti-VHL, 35S-labeled Gal4 fusion.

The target in another assay is T3, V5-tagged PHD2/HPH2 (human, UniProt Q9GZT9 1-426, limits assumed).
T3 construct: V5/His-tagged expression plasmid; also called HIF prolyl-4-hydroxylase; not shown: V5/His tag
T3 sequence (Q9GZT9 whole entry): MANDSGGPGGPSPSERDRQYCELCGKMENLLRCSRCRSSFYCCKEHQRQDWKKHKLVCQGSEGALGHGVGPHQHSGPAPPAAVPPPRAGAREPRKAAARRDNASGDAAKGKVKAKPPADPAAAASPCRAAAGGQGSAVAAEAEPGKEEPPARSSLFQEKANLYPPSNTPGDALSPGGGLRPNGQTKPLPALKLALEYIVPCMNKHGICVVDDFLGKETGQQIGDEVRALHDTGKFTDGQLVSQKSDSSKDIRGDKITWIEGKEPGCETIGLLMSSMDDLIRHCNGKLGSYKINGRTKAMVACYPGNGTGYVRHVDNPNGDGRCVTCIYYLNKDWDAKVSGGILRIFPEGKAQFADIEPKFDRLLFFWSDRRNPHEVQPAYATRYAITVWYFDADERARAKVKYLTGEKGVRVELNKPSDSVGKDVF
The experiment in a line: co-immunoprecipitation with anti-Gal4, Western blot with anti-V5, 293 cells with Cbz-LLL.

A further assay concerns the target T4, V5-tagged PHD1/HPH3 (human, UniProt Q96KS0 1-407, limits assumed).
T4 construct: V5/His-tagged expression plasmid; not shown: V5/His tag
Described as above.

Assay [3] concerns the target T1, VHL protein (endogenous, in Hep3B / 293 …). The experiment in a line: EMSA super-shift with anti-VHL, transfected 293 cells.

T4 sequence (Q96KS0 whole entry): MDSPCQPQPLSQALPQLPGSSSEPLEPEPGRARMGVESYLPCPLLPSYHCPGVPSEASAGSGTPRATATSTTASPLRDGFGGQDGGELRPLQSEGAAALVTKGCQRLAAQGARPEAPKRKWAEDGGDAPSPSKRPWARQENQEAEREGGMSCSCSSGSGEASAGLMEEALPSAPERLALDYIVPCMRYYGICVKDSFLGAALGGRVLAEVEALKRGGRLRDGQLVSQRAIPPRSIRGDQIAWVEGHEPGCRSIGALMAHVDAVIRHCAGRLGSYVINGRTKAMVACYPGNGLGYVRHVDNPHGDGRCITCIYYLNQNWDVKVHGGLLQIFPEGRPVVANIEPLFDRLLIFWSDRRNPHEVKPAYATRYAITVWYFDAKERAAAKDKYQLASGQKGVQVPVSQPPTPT
Protocol for V5-tagged PHD1/HPH3: as §1, §2
Protocol for V5-tagged PHD2/HPH2: as §1, §2

Regarding B1, in the assay with Gal4-HIF1α(498-603), the binding result is recorded as “no binding”.
Take B2: in assay [1], the “Gal4 luciferase reporter activity (Hep3B cells) under oxygenated conditions, in comparison to the wild-type” value was determined as 4.3 fold increase and the “expression level (Western blot, 293 cells), in comparison to Gal4-HIF1α(498-603)” value is 7 fold increase. Moreover, the binding result in assay [2] is “no binding”. Further, the binding result in the assay with V5-tagged PHD2/HPH2 is “no binding”.
Regarding B3, the binding result in assay [2] was “no binding”.
Regarding B4, in the assay with V5-tagged PHD1/HPH3, the binding result was “no binding”.
As for B5, in assay [2], the binding result is on record as “no binding”.
In the case of B6, in assay [1], the “Gal4 luciferase reporter activity (Hep3B cells), in comparison to Gal4-HIF1α(498-573)” value came out at 6.5 fold decrease and the “protein levels under normoxia (Western blot, 293 cells), in comparison to Gal4-HIF1α(498-573)” value is roughly 3 fold decrease.
Regarding B7, in assay [2], the binding result is reported as “no binding”.
Take B8: the binding result in assay [3] and in assay [2] was “no binding” each time.

The record behind these values is patent US20050202450A1 (US Dept. of Health and Human Services, published 2005).
